Laboratory results published in the nanobody polyreactivity screen of Harvey et al. (2022).

Assay: yeast display, Sf9 membrane polyspecificity reagent, FACS + sequencing; frameworks hold sequencing errors
Procedure, shortened: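 Nanobodies came from a synthetic yeast display library in Saccharomyces cerevisiae BJ5465, induced with galactose for 36–48 hours and stained for 1 hour at 4 °C with 10% biotinylated, detergent-solubilized Sf9 membrane reagent. Cells were enriched on streptavidin microbeads and then FACS-sorted, with low and high (top ~1%) gates set on anti-HA fluorescence for expression and streptavidin fluorescence for reagent binding. Each polyreactivity label reflects the gate a clone came from. Genes were amplified by colony PCR, sequenced by MiSeq 2 × 250 and filtered by CDR length.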

Sequence	polyreactivity (PSR sort gate)
QLQLVESGGGLVQAGGSLRLSCAASGSTYATYTMGWYRQAPGKERELVAAISVSGSRTYYADSVKGRFTISRDNAKNTVYLQMNSLKPEDTAVYYCNADPPVKLYLYDYWGQGTQVTVSS	high polyreactivity
QLQLVESGGGLVQAGGSLRLSCAASVRTFQNYAMGWYRQAPGKEREFVAAITWRVGTTYYADSVKGRFTISRDNAKNTVYLQMNSLKPEDTAVYYCAARSRTVRYDYWGQGSQVTVSS	high polyreactivity
QLQLVESGGGLVQAGGSLRLSCAATGSTFYDNAMGWYRQAHGKERELVARIRWSGVRTYYADSVKGRFTISRDNAKNTVYLQMNSLKPEDTAVYYCAAGRPRPHWWSLDYYYWGQGTQVTVSS	low polyreactivity
QLQLVESGGGLVQAGGSLRLSCAGSGSIFVGYAMGWYRQAPGKARELVAAISTRGGSTYYADSVKGRFTISRDNAKNTVYLQMNSLKPEDTAVYYCAADYLDSTYGYVYGWDDYWGQGTQVTVSS	low polyreactivity
QLQLVESGGGLVQAGGSLRLSCAPSGSTFESYAMGWYRQSPGKERELVAAISSSGGSTYYADSVKGRFTISRENAMNTVYLEMYRLIPEDTAVYYCAAPTFSRYYYWGQGTQVTVSS	high polyreactivity
QLQLVESGGGLVQAGGSLRLSCASSGRIFRYNAMGWYRQAPGKERELVAVISGSGGSTYYADSVKGRFTISRDNAKNTVYLQMNSLKPEDTAVYYCAAQFHVSWYNYWGQGTQVTVSS	low polyreactivity
QLQLVESGGGLVQAGGSLRLTCAASGIIFAYNARGWYRQAPGKERELVATITDSRGSTSYADSVKGRFTISRDNAKNTVYLQMNSLKPEDTAVYYCAVLPVYWYWRNYVYLSGYDYWGQGTQVTVSS	low polyreactivity
QLQLVESGGGLVQAGGSLRLTCAASGSIIWVYAMGWYSQAPGKEWELVAAITSGVSTYYADSVKGRFTISRDHAKNTVSFQMISLKPEDTAVYYCAVVGGFRWIRMEYWGQGTQVTVSS	low polyreactivity
QLQLVESGGVLVQAGASLRLSCAATVSTFIYYAMGWYRQAPGKEREVVAAISKRGGNTYYADSVKGRFTISRDNAKNTVYLQMNSLKPEDTAVYYCAARVYGTSRRYYSWGQGTQVTVSS	high polyreactivity
QLQLVESGRGLVQAGGSLRISCDASGSTFRRNAMGWYRPAPGKERELVAAITRGGGSTYYADSVKGRLTISRDNAKNTVYLQMNSLKPDDTAVYYCAAQISATRETMDYWGQGTQVTVSS	high polyreactivity
QLQLVESGRGLVQAGGSLRLSCAASGLIFGNYAKRSYRQPPGKESELVAAITSTGITYYADSVKGRFTISRDNAKNTVYLQMTSLKPEDTAVYYCAAASRFHPDRGGYWGQGTQVTVSS	low polyreactivity
QLQLVESGRGLVQAGVSLRLSCAASGFIFEDYAMGCYRTAPGNDRELVAAISRRGGSTYYADSVKGRFTISRYNAKKTVYLQMNSLKPEDTAVYYCAAYYPYSGKGGYDYWGQGTQVTVSS	high polyreactivity
QLQLVETGGGLVQAGGSLRLSCAASGRIFQYYVMGWYRQAPGKERELVAAITSGGSTYYADSVKGRFTISRDNAKNTVYLQMNSLKPEDTAVYYCAAGYWYNFDYWGQGTQVTVSS	high polyreactivity
QLQLVQSGGGLVQAGGSLRLSCAASGRIFFKYVKGWYRQAPGKERELVAAISSAGSTYYADSVKRRFTISRDNAKNTVYLQMNSLQPEDTAVYYCATYYSAINYGWSKTILYDYWGQGTQVTVSS	low polyreactivity
QLQRVESGGGLVQAGGSLRLSCAASGITYRYYVMGWYRQAPGKETQLVAAITSGVSTYYADSVKGRFTISRDNAKNTVYLELNSLKPEDTAVDYCAADEPWTYYLYGKMYYWGQGTQVTVSS	high polyreactivity
QLQRVESGGGLVQAGGSLRLSCAASGSIFSPYAMGWYRQAPGKERELVAAISTRGGNTYYADSVKGRFTISRDNAKNTVYLQMNSLKPEDTAVYYCARKIRREGRYDYWGQGTQVTVSS	high polyreactivity
QVELVESAGGLVQAGGSLRLSCAGSGSTFEYNAMGWYRQGPGKERELVASSTNYADSVKGRFTISRDNAKNTVYLKMNSLKPEDTAVYYCAREQGVNRYHDYWGQGTQVTVSS	low polyreactivity
QVELVESGGGLVQAGGSLRLSCAASGITLRHYTMGWYRQAPGKVRELVATISRSGGRTYYADSVKGRFTISRDIAKNTVYLQMNSLKPEDTAFYYCARQFWRHWYGYWGQGTQVTVSS	high polyreactivity
QVELVESGGGLVQAGGSLRLSCAASGYTFRFNAMGWYRQAPGKEREFVAAIDFGGAGTYYADSVKGRFTISRDNAKNTVYLQMNSLKPEDTAVYYCNARDGVTTEFDYWGQGTQVTVSS	low polyreactivity
QVELVESGGGLVQPGGRLRLSCAASGFTFNYYAMGWYRQAPGKEREFVAAISRGGGRTYYADSVKGRFTISRDNAKNTVYLQMNSLKPEDTAVYYCAAQSVPYAYRLASYDYWGQGTQVTVSS	high polyreactivity
QVELVVSGGGLVQAGGSLRLSCAAYGSIFLGNAMGWYRQAPGKEREFVAGIRGSAGTTSYADSVKGRFTISRDNAKNPGYLQMNSLKPEDTAVYYCAARPRHSDGYYYWGQGTEVTVSS	high polyreactivity
QVHHVESAGGLVQAGGSLRLICAASGSTFDYYAMGWYRQEPGKERELLAGIDSAGSTNYADSVKGRFTISRDNAKNTVYLQMNSVKTGTYRGLYCNVGKTITTYAFPTFDYWGQGSQVTVSS	low polyreactivity

Sequence	polyreactivity (PSR sort gate)
QVHHVESGGGLVQAGGSLRLSCAASGFIFVHNAMGCYSQAPGKERELVAAIRSRGGSTYYADSVKGRFTISRDNAKNTVYLQMNRLKPEDTAGYYCAADGAVVSSSRKFGYWGQGTQVTVSS	low polyreactivity
QVHHVESGGGLVQAGGSLRLSCAASGFTLGWYAMGWYRQAPGKERELVAAISSSGGSTYYADSVKGRFTISRDNAKNTVYFQMNSLKPEDTAVYFCAASSAYYRYGYGQFDYWGQGTQVTVSS	high polyreactivity
QVHHVESGGGLVQAGGTLRLSCSASGSTFWANAMGWYRQQPGKEWEFVARITYSCGSTYYADSVKGRFTISRDNAKNTVYLQMNSLIREDTAVYYCAAELPGKLVYWGQGSQVTVSS	low polyreactivity
QVHIVDSCGGLVKAGGSLRLSSAASGSIFHPYTMVWYRQAPGKEMELVAGISQSTDSTYYADSLKGRFTISRDYAKTTVYFQMISLKPEDTAVYYCNRVYDLPLSVVEVDYWGQGTQVTVSS	low polyreactivity
QVHIVESGEVIVQAGGSLRLSCDASGFTIIQYAMGWYRQAPGKERELVAAISVSGGSTYYADSVKGRFTISRDNAKNTVYLQMNSLKTEDTAVYYCATYGFHSIGSIFEYEYWGQGTQVTVSS	high polyreactivity
QVHIVESGGGLVQAGGSLRLSCAASGFTFFSNAMGWYRQAPGKQRELVASISASGSGTYYAVSVKGRFTISRDNAKNTFYLQMNSLKPDDTAVYYCSTRVGKILTTKYGYWGQGTQVSVSS	high polyreactivity
QVHLEESGGCLVQAGGSLRLSCAASGLFARNAMGWYRQAPGKERELVAAINRSGGSTYYADSVKGPFTISRDNAKNTVYLQMKSLKPEDTAVYYCNQAFTHTKDLSPIAYEYVFWGQGTQVTVSS	low polyreactivity
QVHLEESGGGLVQAGGSLRLSWAASGATFSNYTMGWDRQAPGNERELVAAISRTGGSTYYADSVNGRFTISRDNAKNHVYLQISSLEPEDNAVYYCAAICYVGRYYYWGQGNQVTVSS	high polyreactivity
QVHLLDSVGGLVQAGGSLRLSCAACGRIVGTNAMGWYRQAPGKERELVATITRGGGNTYYADSVKGRFTISRDNAKNTVYLQLNSLKPEDTAGYDCAAKFHRFAWYSHYAYWGQGTQVTVSS	low polyreactivity
QVHLLESGGGLVQAGGSLRLSCAASGRTFYDYTMGWYRQAPGKERELVAVISKRGGSTYYADSVKGRFTISRDNAKNTVYLQMNSLKPEDTAVYYCAAKSGRNVYQKVDYWGQGTQVTVSS	high polyreactivity
QVHLQESGDGLVQPVGSQRLSCAASGYISGNYYMGWYRQAPGTERELVAGIDAFGSSTNYADCVKGRFTISRYNAKNSVYLQMYRLKPEDTAVYYCAAPPDGDRLFSYWGQGTQVTVSS	low polyreactivity
QVHLQESGGGLVQAGGSLRLSCAASGNIVDADIMGWYRQAPGKERELVASITDGGSTNYADSVKGRFTISRDNAKNTVYLQMNSLKPEDTAVYYCAAIGYPDIPTYFDYDSEYFYWGQGTQVTVSS	low polyreactivity
QVHLQESGGGLVQAGGSLRLSCAASGNNSPVGVLGRYRQAPGKERELVATINFGGSSYYADSVKGRFTISRDNAKNTVYLQMNSLKREDTAVYYFAYCGQGTQVTVSS	low polyreactivity
QVHLQESGVVLMQARGNLRMSCAASGYISTQYHMDWYRQAPGKERELVARIDYGAITNYADSVKGRFTIRRDNAKNTVYLQMTSLKPEDTAVYYCAVYSGDDYYHDYWGHGTQVTVSS	low polyreactivity
QVHLQESRGGLVQAGGSLRLSCAASGIIFDNPNMGCYRQAPGKERELVATINSGATTNYADSVKGRFTISRDNAKNTVYLQMNSLIPEDTAVYYCAVDLSPTYFYYWGQGTQVTVSS	high polyreactivity
QVHLVASGGGLVQAGGSLRLRCAASGFTIDTYAKGWYRQAPGKERDLVAGISWSGGSTYYADSVKGRFTISRDNAKNTVYLQRNSLNPEDTAVYYCAADYAGYPGRTRQRPGYDYWGQGTQVTVSS	low polyreactivity
QVHLVDSAGGLVQAGGSLRLSCAASGNIFDYNGMGWYRQAPGKERELVAGINWSGGSTYYADSVKGRFTISRDNAKNTVYLQMNSLTPEDTAVYYCAAECVYDWYPFWRAIYTYDYWGQGTQVTVSS	low polyreactivity
QVHLVDSCGALVQAGGSLSIRCAASGLTIYRYAKGWNRQEPRKETEVVAAISSADRTYYADSVKGRFTISRDNAKNTVYLQMNSLKPEDTAVYYCAARANYFGWTKSYYYWGQGTQVTVSS	high polyreactivity
QVHLVDSGAGLVQAGGSLRLSCAASGYTFYANAMGWYRQAPGKERELVAGINRSGSTYYADSVKGRFTISRDNAKNTVYLQMNSLKPEDTAVYYCATAWHRGVRGRTSGAFDYWGQGTQVTVSS	high polyreactivity
QVHLVDSGGGLVQAGGILRLSCPATGSIFVYNTMGWYRQAPGKERELVADITSGTSTYYADSVKGRFTISRDNAKNTVYLQMNSLKPEDTAVYYSAAERWYKYYAYDYWGQGTQVTVSS	low polyreactivity
QVHLVDSGGGLVQAGGSLRLSCAASGRIYYVYAMGGYRQAPGQERELVAGITSTGGSTYYADSVKGRFTISRDNAKSTVYLQINRLNPVDTAVYYGATDYGYYDYWGQGTQVTVSS	low polyreactivity
